Source: patent US20170319655A1

Columns and labels:
[1] = molecular target: flagellin on flagellin-expressing Pseudomonas aeruginosa wild type bacteria (Pseudomonas aeruginosa); experiment: cell-based or functional assay
[2] = molecular target: MUC1-ED on Ad-NEU1-infected airway epithelial cells (A549 cells; SAECs), desialylated by overexpressed NEU1 (human) (UniProt P15941); experiment: cell-based or functional assay

MUC1-ED from supernates of airway ECs cultured with the O-glycosylation inhibitor GalNAc-O-bn (from UniProt P15941 24-1158) (receptor)
reduction of Pa adhesion to A549 monolayers, against its control [1]: 88%

E. coli-expressed deglycosylated MUC1-ED (from E. coli transformed with pMUC1) (from UniProt P15941 24-1097) (receptor)
reduction of Pa adhesion to A549 monolayers, against the empty vector control [1]: 93%

desialylated shed MUC1-ED from culture supernates of Ad-NEU1-infected A549 cells (from UniProt P15941 24-1158) (receptor)
MUC1-ED concentrations capable of inhibiting Pa adhesion in vitro [1]: < 0.63 µg/mL
reduction of Pa adhesion to A549 monolayers, against MUC1-ED from Ad-GFP-infected ECs [1]: 65%

desialylated MUC1-ED in bronchoalveolar lavage fluids (BALFs) from Pa-colonized patients (from UniProt P15941 24-1158) (receptor)
inhibition of Pa adhesion to A549 cells, against BALFs from noncolonized subjects [1]: 52.9%
inhibition of Pa adhesion to A549 cells, against BALFs from patients colonized with nonPa microorganisms [1]: 42.1%

flagellin on flagellin-expressing Pseudomonas aeruginosa wild type bacteria (ligand)
Pa adhesion to Ad-NEU1-infected A549 cells (CFUs bound), against Ad-GFP-infected ECs [2]: 2 fold
Pa adhesion to Ad-NEU1-infected SAECs (CFUs bound), against Ad-GFP-infected SAECs [2]: 3.4 fold

shed MUC1-ED from culture supernates of flagellin-stimulated A549 cells (from UniProt P15941 24-1158) (receptor)
MUC1-ED concentrations capable of inhibiting Pa adhesion in vitro [1]: < 0.63 µg/mL
